In general, EC50 (read off the curve) refers to the concentration giving half of the maximal effect.

In the assay the target is peptide #49+50 (combined sequences of EspB peptides #49 and #50) (Enteropathogenic Escherichia coli (EPEC)). As to the kind of experiment: ELISA, plate coated with peptide #49+50, serially diluted mAb, anti-human IgG-HRP. (An ELISA detects its analyte on a solid surface through an enzyme-linked reagent.)

B1: mAb-EspB-B7 (antibody, V domains shown)
VH: EVQLLESGGGLVQPGGSLRLSCAASGFTFSHYAMNWVRQAPGKGLEWVSAINSNGDSTYYPDTVKDRFTISRDNSKNTLYLQMNSLRAEDTAVYYCARDRRAGYFDYWGQGTLVTVSS
VL: DIVLTQPPSASGTPGQRVTISCSGSRDNIGKNYVSWYQQLPGTAPKLLIYRNNQRPSGVPDRFSGSKSGTSASLAISGLRSEDEADYYCSAWDTSLNAYVFGPGTQLTVL
Regarding B1, the EC50 (read off the curve) is 0.4 mg/L.

The record behind these values is patent US20250264433A1.
